{
  "source": "paper doi:10.1101/2021.07.23.453529",
  "about": "“TELSAM polymers accelerate crystallization of fused target proteins by stabilizing minimal crystal contacts and in the absence of direct inter-TELSAM contacts” (bioRxiv, 2021)",
  "binders": {"B1": {"name": "DARPin (Designed Ankyrin Repeat Protein) of 3TEL-rigid-DARPin (designed binder)", "chain": "DLGKKLLEAARAGQDDEVRILMANGADVNATDNDGYTPLHLAASNGHLEIVEVLLKNGADVNASDLTGITPLHAAAATGHLEIVEVLLKHGADVNAYDNDGHTPLHLAAKYGHLEIVEVLLKHGADVNAQDKFGKTAFDISIDNGNEDLAEILQKLN", "notes": "Designed Ankyrin Repeat Protein (DARPin), modelled from PDB ID 4J7W; Stood in the crystal joined on one chain with 3TEL; also called DAPRin; source: E. coli BL21(DE3), purified, as part of the 3TEL-rigid-DARPin chain"}, "B2": {"name": "1TEL (single TELSAM monomer) of 1TEL-flex-vWa (domain or fragment, human)", "chain": "GSIALPAHLRLQPIYWSRDDVAQWLKWAENEFSLRPIDSNTFEMNGKALLLLTKEDFRYRSPHSGDELYELLQHILAQ", "notes": "residue printed before TEL S47, left after SUMO cleavage; sterile alpha motif (SAM) domain of human ETS variant transcription factor 6 (TEL); Stood in the crystal joined on one chain with the vWa domain through one alanine; written apart for the contacts between the two parts"}, "B3": {"name": "3TEL (three tandem TELSAM monomers) of 3TEL-rigid-DARPin (domain or fragment, human)", "chain": "GSIRLPAHLRLQPIYWSRDDVAQWLKWAENEFSLRPIDSNTFEMNGKALLLLTKEDFRYRSPHSGDELYELLQHILKQRPGGGGSTSIRLPAHLRLQPIYWSRDDVAQWLKWAENEFSLRPIDSNTFEMNGKALLLLTKEDFRYRSPHSGDVLYELLQHILKQRPGGGGSTSIRLPAHLRLQPIYWSRDDVAQWLKWAENEFSLRPIDSNTFEMNGKALLLLTKEDFRYRSPHSGDVLYELLQHILKQR", "notes": "residue printed before TEL S47, left after SUMO cleavage; first TEL-SAM domain of 3TEL (human ETS variant transcription factor 6), the only one with V112E; flexible inter-TELSAM linker, as in PDB ID 2QAR; second TEL-SAM domain of 3TEL (human ETS variant transcription factor 6); third TEL-SAM domain of 3TEL (human ETS variant transcription factor 6); written apart for the contacts between the two …"}, "B4": {"name": "3TEL-rigid-DARPin (other, human)", "chain": "GSIRLPAHLRLQPIYWSRDDVAQWLKWAENEFSLRPIDSNTFEMNGKALLLLTKEDFRYRSPHSGDELYELLQHILKQRPGGGGSTSIRLPAHLRLQPIYWSRDDVAQWLKWAENEFSLRPIDSNTFEMNGKALLLLTKEDFRYRSPHSGDVLYELLQHILKQRPGGGGSTSIRLPAHLRLQPIYWSRDDVAQWLKWAENEFSLRPIDSNTFEMNGKALLLLTKEDFRYRSPHSGDVLYELLQHILKQRDLEAEAAAAEDLGKKLLEAARAGQDDEVRILMANGADVNATDNDGYTPLHLAASNGHLEIVEVLLKNGADVNASDLTGITPLHAAAATGHLEIVEVLLKHGADVNAYDNDGHTPLHLAAKYGHLEIVEVLLKHGADVNAQDKFGKTAFDISIDNGNEDLAEILQKLN", "notes": "residue printed before TEL S47, left after SUMO cleavage; first TEL-SAM domain of 3TEL (human ETS variant transcription factor 6), the only one with V112E; flexible inter-TELSAM linker, as in PDB ID 2QAR; second TEL-SAM domain of 3TEL (human ETS variant transcription factor 6); third TEL-SAM domain of 3TEL (human ETS variant transcription factor 6); rigid alpha-helical connection between 3TEL and …"}},
  "key": {"[1]": {"target": "B3", "test": "crystal structure; 3TEL-rigid-DARPin, 15 mg/mL, sitting drop, HEPES pH 7.3-7.4 with PEG; P1211, 2 molecules per asymmetric unit; contacts within the polymer and the crystal lattice", "settings": "both partners purified"}, "[2]": {"target": "the molecule itself", "test": "crystal structure; 1TEL-flex-vWa, 20 mg/mL, sitting drop, 100 mM Bis-Tris, pH 5.7, 3.0 M NaCl; P65, 1 molecule per asymmetric unit; contacts within the polymer and the crystal lattice"}, "[3]": {"target": "the molecule itself", "test": "crystal structure; 3TEL-rigid-DARPin, 15 mg/mL, sitting drop, HEPES pH 7.3-7.4 with PEG; P1211, 2 molecules per asymmetric unit; contacts within the polymer and the crystal lattice"}},
  "data": [
    {"binder": "B1", "values": [
      {"measurement": "binding result", "setting": "[1]", "value": "binds"}
    ]},
    {"binder": "B2", "values": [
      {"measurement": "binding result", "setting": "[2]", "value": "binds"}
    ]},
    {"binder": "B3", "values": [
      {"measurement": "binding result", "setting": "[3]", "value": "binds"}
    ]},
    {"binder": "B4", "values": [
      {"measurement": "binding result", "setting": "[3]", "value": "binds"}
    ]}
  ]
}
